Data as given in US12692524B2, “Sialyltransferases and their use in producing sialylated oligosaccharides” (Chr. Hansen A/S, priority 2017, dated 2026).

Columns and labels:
[1] = In vitro sialylation of LNT by protein extracts, LST-a/-b quantified by LC-MS/MS; assay type: biochemical; details: 5 mM LNT, 10 mM CMP-Neu5Ac, 16 hours, LC-MS/MS; relative quantity; n.d.: not detectable
Procedure: Escherichia coli BL21(DE3) harbouring plamids encoding for 100 sialyltransferases were grown at 30° C. in 100 ml shake flasks filled with 20 ml of 2YT medium supplemented with ampicillin 100 μg ml^−1. When the cultures reached an OD600 of 0.1 to 0.3, gene expression was induced by addition of 0.3 mM IPTG and the incubation was continued for 12 to 16 hours. Cells were harvested by centrifugation and mechanically disrupted in a defined volume of 50 mM Tris-HCl pH7.5 using glass beads. The protein extract was kept on ice until the assay started. The in vitro assay was carried out in a total volume of 25 μl including 50 mM Tris-HCl pH7.5, 5 mM MgCl2, 10 mM CMP-Neu5Ac and 5 mM LNT. The assay started with the addition of 3 μl protein extract and continued for 16 hours. Product formation was determined by mass spectrometry.
Mass spectrometry analysis was performed by MRM (multiple reaction monitoring) using a LC Triple-Quadrupole MS detection system. Precursor ions are selected and analyzed in quadrupole 1, fragmentation takes place in the collision cell using argon as CID gas, selection of fragment ions is performed in quadrupole 3. Chromatographic separation of lactose, 3′-Sialyllactose and 6′-Sialyllactose after dilution of culture supernatant 1:100 with H2O (LC/MS Grade), was performed on a XBridge Amide HPLC column (3.5 μm, 2.1×50 mm (Waters, USA) with a XBridge Amide guard cartridge (3.5 μm, 2.1×10 mm) (Waters, USA). Column oven temperature of the HPLC system was 50° C. The mobile phase was composed of acetonitrile:H2O with 10 mM ammonium acetate. A 1 μl sample was injected into the instrument; the run was performed for 3.60 min with a flow rate of 400 μl/min. 3′-Sialyllactose and 6′-Sialyllactose were analyzed by MRM in ESI positive ionization mode. The mass spectrometer was operated at unit resolution. Sialyllactose forms an ion of m/z 656.2 [M+Na]. The precursor ion of Sialyllactose was further fragmented in the collision cell into the fragment ions m/z 612.15, m/z 365.15 and m/z 314.15. Collision energy, Q1 and Q3 Pre Bias were optimized for each analyte individually. Chromatographic separation of lactose, LNT-II, LNT and LST-a or -b after dilution of particle-free biocatalysis-reaction or crude extract, respectively, 1:50 with H2O (LC/MS Grade), was performed on a XBridge Amide HPLC column (3.5 μm, 2.1×50 mm (Waters, USA) with a XBridge Amide guard cartridge (3.5 μm, 2.1×10 mm) (Waters, USA). Column oven was run at 35° C. The mobile phase was composed of acetonitrile:H2O with 0.1% ammonium hydroxide. A 1 μl sample was injected into the instrument; the run was performed for 3.50 min with a flow rate of 300 μl/min. Lactose, LNT-II, LNT as well as LST-a and -b were analyzed by MRM in ESI negative ionization mode. The mass spectrometer was operated at unit resolution. Lactose forms an ion of m/z 341.00 [M−H]. The precursor ion of Lactose was further fragmented in the collision cell into the fragment ions m/z 179.15, m/z 161.15 and m/z 101.05. LNT-II forms an ion of m/z 544.20 [M−H]. The precursor ion of LNT-II was further fragmented into the fragment ions m/z 382.10, m/z 161.00 and m/z 112.90. LNT forms an ion of m/z 706.20 [M−H]. The precursor ion of LNT was further fragmented into the fragment ions m/z 382.10, m/z 202.10 and m/z 142.00. LST-a and -b forms an ion of m/z 997.20 [M−H]. The precursor ion of LST-a and-b was further fragmented into the fragment ions m/z 290.15, m/z 202.15 and m/z 142.15. Collision energy, Q1 and Q3 Pre Bias were optimized for each analyte individually. Quantification methods were established using commercially available standards (Carbosynth, Compton, UK).
Twenty eight genes were identified to produce LST-a whereas only 6 enzymes synthesized LST-b. […] Irrespectively of the protein overexpression level, sialyltransferases that produced best were selected for determination of Km and Vmax.

[2] = In vivo screening in E. coli #1363/#1730 with lactose as acceptor, sialyllactose identified by TLC; assay type: cell-based, Escherichia coli BL21(DE3); details: 1.5 mM lactose, 72 to 96 hours, qualitative via TLC
Procedure: Escherichia coli BL21(DE3) #1363 and #1730 harbouring plasmids encoding for 100 sialyltransferases were grown at 30° C. in 100 ml shake flasks filled with 20 ml of mineral salts medium (Samain et al., J. Biotech. 1999, 72:33-47) supplemented with 2% (wt/vol) glucose, ampicillin 100 μg ml^−1, kanamycin 15 μg ml^−1 and zeocin 40 μg ml^−1. When the cultures reached an OD600 of 0.1 to 0.3, gene expression was induced by addition of 0.3 mM IPTG. After an incubation for one hour, 1.5 mM lactose was added to #1363 cultures whereas 1.5 mM lactose as well as 1.5 mM sialic acid was added to #1730 cultures. The incubation continued for 72 to 96 hours. Then, cells were harvested by centrifugation and mechanically disrupted in a defined volume using glass beads. Subsequently, samples were applied to thin layer chromatography (TLC) on Silica Gel 60 F254 (Merck KGaA, Darmstadt, Germany). A mixture of butanol:acetone:acetic acid:H2O (35/35/7/23 (v/v/v/v)) was used as mobile phase. For detection of the separated substances, the TLC plate was soaked with thymol reagent (0.5 g thymol solved in 95 ml ethanol, 5 ml sulfuric acid added) and heated.
In the entire screening, thirty two genes were identified to encode for α-2,3-sialyltransferases, thus producing 3′-SL. 19 enzymes synthesized 6′-SL and were depicted as α-2,6-sialyltransferases. An α-2,3- as well as an α-2,6-sialyltransferase activity could only be observed for 3 enzymes. […] The screening appeared highly accurate since the described activities of extensively characterized sialyltransferases, e. g. […] Regarding the product formation, the experimental setting allowed a semi-quantitative comparison of the screened enzymes. But to achieve deeper knowledge about their kinetic properties, the 3 potentially best performing α-2,3- and α-2,6-sialyltransferases were applied to in vitro assays.

| Molecule | Relative efficacy of sialyltransferases regarding in-vitro production of sialyllacto-N-tetraoses: LST-a [1] | Production of sialyllactose in-vivo [2] |
| --- | --- | --- |
| SiaT2: sialyltransferase of Campylobacter jejuni strain OH4384, acc. AF130466, SEQ ID NO: 10 (protein, listed as Campylobacter jejuni) MTRTRMENELIVSKNMQNIIIAGNGPSLKNINYKRLPREYDVFRCNQFYFEDKYYLGKKIKAVFFNPGVFLQQYHTAKQLILKNEYEIKNIFCSTFNLPFIESNDFLHQFYNFFPDAKLGYEVIENLKEFYAYIKYNEIYFNKRITSGVYMCAIAIALGYKTIYLCGIDFYEGDVIYPFEAMSTNIKTIFPGIKDFKPSNCHSKEYDIEALKLLKSIYKVNIYALCDDSILANHFPLSININNNFTLENKHNNSINDILLTDNTPGVSFYKNQLKADNKIMLNFYNILHSKDNLIKFLNKEIAVLKKQTTQRAKARIQNHLSYKLGQALIINSKSVLGFLSLPFIILSIVISHKQEQKAYKFKVKKNPNLALPPLETYPDYNEALKEKECFTYKLGEEFIKAGKNWYGEGYIKFIFKDVPRLKREFEKGE | 749 | 3′-SL |
| SiaT13: sialyltransferase of Streptococcus agalactiae, acc. AB050723, SEQ ID NO: 17 (protein, listed as Streptococcus agalactiae) MTNRKIYVCHTLYHLLICLYKEEIYSNLEIILSSSIPDVDNLEKKLKSKTINIHILEESSGESEELLSVLKDAGLSYSKFDSNCFIFNDATPIGRTLIKHGIYYNLIEDGLNCFTYSIFSQKLWKYYVKKYILHKIQPHGFSRYCLGIEVNSLVNLPKDPRYKKFIEVPRKELFDNVTEYQKEMAINLFGAVRVSIKSPSVLVLTQPLSIDKEFMSYNNKIETSEEQFNFYKSIVNEYINKGYNVYLKVHPRDVVDYSKLPVELLPSNVPMEIIELMLTGRFECGITHSSTALDFLTCVDKKITLVDLKDIK | 24 | 3′-SL |
| SiaT14: sialyltransferase of Haemophilus-somnus-2336, acc. ACA31578, SEQ ID NO: 26 (protein, listed as Haemophilus somnus) MFREDNMNLIICCTPLQVIIAEKIIERYPEQKFYGVMLESFYNDKFDFYENKLKHLCHEFFCIKIARFKLERYKNLLSLLKIKNKTFDRVFLANIEKRYIHIILSNIFFKELYTFDDGTANIAPNSHLYQEYDHSLKKRITDILLPNHYNSNKVKNISKLHYSIYRCKNNIIDNIEYMPLFNLEKKYTAQDKSISILLGQPIFYDEEKNIRLIKEVIAKFKIDYYFPHPREDYYIDNVSYIKTPLIFEEFYAERSIENSIKIYTFFSSAVLNIVTKENIDRIYALKPKLTEKAYLDCYDILKDFGIKVIDI | 2 | 3′-SL |
| SiaT15: sialyltransferase of Haemophilus ducreyi 35000HP, acc. AF101047, SEQ ID NO: 14 (protein, listed as Haemophilus ducreyi) MKEIAIISNQRMFFLYCLLTNKNVEDVFFIFEKGAMPNNLTSISHFIVLDHSKSECYDFFYFNFISCKYRLRGLDVYGADHIKGAKFFLERHRFFVVEDGMMNYSKNMYAFSLFRTRNPVILPGGFHPNVKTIFLTKDNPIPDQIAHKREIINIKTLWQAKTATEKTKILSFFEIDMQEISVIKNRSFVLYTQPLSEDKLLTEAEKIDIYRTILTKYNHSQTVIKPHPRDKTDYKQLFPDAYVMKGTYPSELLTLLGVNFNKVITLFSTAVFDYPKEKIDFYGTAVHPKLLDFFD | 204 | 3′-SL |
| SiaT16: sialyltransferase of Haemophilus ducreyi 35000HP, acc. AAP95068, SEQ ID NO: 27 (protein, listed as Haemophilus ducreyi) MLIQQNLEIYLDYATIPSLACFMHFIQHKDDVDSIRLFGLARFDIPQSIIDRYPANHLFYHNIDNRDLTAVLNQLADILAQENKRFQINLHLNLFHSIDLFFAIYPIYQQYQHKISTIQLQLYDDGSEGIVTQHSLCKIADLEQLILQHKNVLLELLTKGTANVPNPTLLRYLWNNIIDSQFHLISDHFLQHPKLQPLKRLLKRYTILDFTCYPRFNAEQKQLLKEILHISNELENLLKLLKQHNTFLFTGTTAFNLDQEKLDLLTQLHILLLNEHQNPHSTHYIGNNYLLLIKGHANSPALNHTLALHFPDAIFLPANIPFEIFAMLGFTPNKMGGFASTSYINYPTENINHLFFLTSDQPSIRTKWLDYEKQFGLMYSLLAMQKINEDQAFMCTIHN | 1 | 3′-SL |
| SiaT10: sialyltransferase of Pasteurella multocida PM70, acc. AAK02272, SEQ ID NO: 4 (protein, listed as Pasteurella multocida) MKTITLYLDPASLPALNQLMDFTQNNEDKTHPRIFGLSRFKIPDNIITQYQNIHFVELKDNRPTEALFTILDQYPGNIELDIHLNIAHSVQLIRPILAYRFKHLDRVSIQRLNLYDDGSMEYVDLEKEENKDISAEIKQAEKQLSHYLLTGKIKFDNPTIARYVWQSAFPVKYHFLSTDYFEKAEFLQPLKEYLAENYQKMDWTAYQQLTPEQQAFYLTLVGFNDEVKQSLEVQQAKFIFTGTTTWEGNTDVREYYAQQQLNLLNHFTQAGGDLFIGDHYKIYFKGHPRGGEINDYILNNAKNITNIPANISFEVLMMTGLLPDKVGGVASSLYFSLPKEKISHIIFTSNKQVKSKEDALNNPYVKVMRRLGIIDESQVIFWDSLKQL | 3.18 × 10^3 | 3′-SL, 6′-SL |
